From patent publication US20120258107A1

Columns and labels:
[1] = biological target: human CD163 on cells (human) (UniProt Q86VB7); assay: quantitative flow cytometry, PBMC after density gradient centrifugation
[2] = biological target: human CD163 on cells (human) (UniProt Q86VB7); assay: flow cytometry, CD14+ILT3+HLA-DR+ monocytes stained positive for CD163
[3] = biological target: human CD163 on cells (human) (UniProt Q86VB7); assay: flow cytometry, R-PE mAb, freshly drawn EDTA whole blood
[4] = biological target: human CD163 on cells (human) (UniProt Q86VB7); assay: flow cytometry, PBMC after density gradient centrifugation
[5] = biological target: human CD163 on cells (human) (UniProt Q86VB7); assay: quantitative flow cytometry, whole blood, EDTA
[6] = biological target: human CD163 on cells (human) (UniProt Q86VB7); assay: quantitative flow cytometry, whole blood, citrate
[7] = biological target: human CD163 on cells (human) (UniProt Q86VB7); assay: flow cytometry, PE mAb, peripheral blood dendritic cells
[8] = biological target: human CD163 on cells (human) (UniProt Q86VB7); assay: flow cytometry, whole blood, citrate as anticoagulant
[9] = biological target: human CD163 on cells (human) (UniProt Q86VB7); assay: flow cytometry, whole blood, heparin as anticoagulant
[10] = biological target: human CD163 on cells (human) (UniProt Q86VB7); assay: quantitative flow cytometry, whole blood, heparin
[11] = biological target: human CD163 on cells (human) (UniProt Q86VB7); assay: flow cytometry, PE mAb, CD14-ILT3+ dendritic cells in whole blood
[12] = biological target: human CD163 on cells (human) (UniProt Q86VB7); assay: flow cytometry, CD163high subset of peripheral blood dendritic cells
[13] = biological target: purified recombinant CD163 immobilized on a Biacore chip (human) (UniProt Q86VB7); assay: SPR, immobilized CD163, 10 mM EDTA
purified recombinant CD163 immobilized on a Biacore chip (human), sequence (Q86VB7 42-1050 limits assumed): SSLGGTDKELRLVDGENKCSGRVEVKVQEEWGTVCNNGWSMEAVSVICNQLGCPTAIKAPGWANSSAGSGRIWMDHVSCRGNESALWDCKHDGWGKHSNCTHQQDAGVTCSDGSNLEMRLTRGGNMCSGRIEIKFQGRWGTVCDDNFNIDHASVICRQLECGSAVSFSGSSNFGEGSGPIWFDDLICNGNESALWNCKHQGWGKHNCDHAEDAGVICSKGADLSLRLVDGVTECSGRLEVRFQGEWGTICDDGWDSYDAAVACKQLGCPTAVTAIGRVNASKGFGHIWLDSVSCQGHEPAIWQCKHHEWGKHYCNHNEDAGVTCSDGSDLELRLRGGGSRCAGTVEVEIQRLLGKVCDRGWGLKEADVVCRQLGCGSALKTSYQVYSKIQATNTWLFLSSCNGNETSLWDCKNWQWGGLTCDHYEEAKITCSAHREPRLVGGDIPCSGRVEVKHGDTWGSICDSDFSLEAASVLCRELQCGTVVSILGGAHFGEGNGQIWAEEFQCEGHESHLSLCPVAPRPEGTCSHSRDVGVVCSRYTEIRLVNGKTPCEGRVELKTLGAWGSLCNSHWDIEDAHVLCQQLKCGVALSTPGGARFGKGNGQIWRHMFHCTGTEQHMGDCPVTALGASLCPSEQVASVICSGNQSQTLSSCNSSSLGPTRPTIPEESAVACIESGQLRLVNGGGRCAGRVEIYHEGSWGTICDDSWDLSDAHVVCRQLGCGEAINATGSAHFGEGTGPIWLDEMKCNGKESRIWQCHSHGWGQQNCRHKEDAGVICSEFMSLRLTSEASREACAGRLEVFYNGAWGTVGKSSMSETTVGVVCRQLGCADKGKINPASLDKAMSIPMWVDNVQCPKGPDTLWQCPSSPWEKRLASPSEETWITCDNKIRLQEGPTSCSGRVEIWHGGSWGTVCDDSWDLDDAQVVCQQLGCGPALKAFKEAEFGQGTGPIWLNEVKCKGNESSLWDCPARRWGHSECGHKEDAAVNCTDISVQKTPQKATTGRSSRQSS

[14] = biological target: human CD163 on cells (human) (UniProt Q86VB7); assay: quantitative flow cytometry, Quantibrite PE beads, EDTA whole blood
[15] = biological target: human CD163 on cells (human) (UniProt Q86VB7); assay: flow cytometry, whole blood, EDTA as anticoagulant
[16] = biological target: human CD163 on cells (human) (UniProt Q86VB7); assay: flow cytometry, CD163low subset of peripheral blood dendritic cells
[17] = biological target: human CD163 on cells (human) (UniProt Q86VB7); assay: 125I-labelled mAb on stable CD163 transfected Flp-In CHO cells (1.23% on non-transfected cells)
[18] = biological target: human CD163 on cells (human) (UniProt Q86VB7); assay: 125I-labelled mAb on stable CD163 transfected Flp-In CHO cells (0.97% on non-transfected cells)
[19] = biological target: human CD163 on cells (human) (UniProt Q86VB7); assay: 125I-labelled mAb on stable CD163 transfected Flp-In CHO cells (1.47% on non-transfected cells)
[20] = biological target: purified recombinant CD163 immobilized on a Biacore chip (human) (UniProt Q86VB7); assay: SPR, immobilized CD163, 2 mM free Ca2+
rat CD163 on cells (rat) [21] = assay: flow cytometry, rat peritoneal macrophages, ED2-FITC
rat CD163 on cells (rat) [22] = assay: flow cytometry of rat peritoneal macrophages, anti-rat CD163-FITC (ED2) against anti-rat CD172a-PE (ED9)
rat CD163 on cells (rat) [23] = assay: cell-based or functional assay
rat CD163 on cells (rat) [24] = assay: flow cytometry of rat peritoneal macrophages, negative control staining with IgG-FITC
[25] = biological target: human CD163 on cells (human) (UniProt Q86VB7); assay: quantitative flow cytometry, background staining, EDTA whole blood
[26] = biological target: human CD163 on cells (human) (UniProt Q86VB7); assay: flow cytometry on peripheral blood dendritic cells, negative staining control

human CD163 on cells (human), sequence (Q86VB7 42-1156): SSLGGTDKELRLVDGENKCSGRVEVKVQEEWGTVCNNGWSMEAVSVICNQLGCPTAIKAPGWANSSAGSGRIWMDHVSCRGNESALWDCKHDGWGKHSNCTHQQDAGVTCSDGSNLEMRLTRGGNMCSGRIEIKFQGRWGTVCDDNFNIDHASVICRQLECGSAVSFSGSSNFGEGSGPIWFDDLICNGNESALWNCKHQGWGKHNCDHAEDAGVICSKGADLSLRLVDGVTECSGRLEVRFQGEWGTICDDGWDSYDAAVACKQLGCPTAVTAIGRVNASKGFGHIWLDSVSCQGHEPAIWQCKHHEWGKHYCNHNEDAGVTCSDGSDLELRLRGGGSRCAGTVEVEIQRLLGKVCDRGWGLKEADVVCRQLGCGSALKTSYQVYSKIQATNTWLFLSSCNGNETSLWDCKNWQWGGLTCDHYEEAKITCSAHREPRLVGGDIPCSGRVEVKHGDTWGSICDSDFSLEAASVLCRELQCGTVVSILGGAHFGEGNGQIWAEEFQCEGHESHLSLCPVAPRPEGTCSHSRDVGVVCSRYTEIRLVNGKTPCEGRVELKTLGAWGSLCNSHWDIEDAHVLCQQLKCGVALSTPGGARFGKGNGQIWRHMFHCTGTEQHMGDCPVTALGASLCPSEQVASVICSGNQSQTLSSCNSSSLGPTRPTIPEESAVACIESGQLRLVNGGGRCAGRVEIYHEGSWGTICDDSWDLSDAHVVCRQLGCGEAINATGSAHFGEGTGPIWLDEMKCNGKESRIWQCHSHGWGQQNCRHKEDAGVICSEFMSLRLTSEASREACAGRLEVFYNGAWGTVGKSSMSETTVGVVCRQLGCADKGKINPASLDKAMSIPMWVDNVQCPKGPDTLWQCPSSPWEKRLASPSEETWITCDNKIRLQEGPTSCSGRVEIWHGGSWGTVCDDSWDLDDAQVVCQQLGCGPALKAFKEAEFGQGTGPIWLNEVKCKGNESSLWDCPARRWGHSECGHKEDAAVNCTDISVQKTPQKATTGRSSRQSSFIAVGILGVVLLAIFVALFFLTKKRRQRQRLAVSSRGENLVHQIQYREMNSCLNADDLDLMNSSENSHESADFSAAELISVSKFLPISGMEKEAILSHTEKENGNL

| density of CD163 receptors per monocyte (PE antibodies bound per cell) [1] [per monocyte] | fraction of CD14+ monocytes stained positive for CD163 [3] [%] | fraction of CD14+ monocytes stained positive for CD163 [4] [%] | density of CD163 receptors per monocyte (PE antibodies bound per cell) [5] [per monocyte] | density of CD163 receptors per monocyte (PE antibodies bound per cell) [6] [per monocyte] | fraction of CD14+ monocytes stained positive for CD163 [8] [%] | fraction of CD14+ monocytes stained positive for CD163 [9] [%] | density of CD163 receptors per monocyte (PE antibodies bound per cell) [10] [per monocyte] | density of CD163 receptors per monocyte (PE antibodies bound per cell) [14] [per monocyte] | fraction of CD14+ monocytes stained positive for CD163 [15] [%] | Substance | other results |
| --- | --- | --- | --- | --- | --- | --- | --- | --- | --- | --- | --- |
| 108 | 63 | 1.26 | 1030 | 1150 | 64.4 | 0.82 | 58.3 | 1030 | 63 | Anti-CD163 (GHI/61) (antibody) | percent of cells stained positive [2]: 88%; MFI [7]: 22.3; fraction of peripheral blood dendritic cells recognized [11]: 10.5%; MFI [12]: 34.6 MFI; Kd [13]: 29 nM; MFI [16]: 4.2 MFI |
| – | – | – | – | – | – | – | – | – | – | Anti-CD163 (GHI/61) (antibody, non-transfected cells) | percentage of cell-associated radioactivity [17]: 1.23% |
| 837 | 75.9 | 54.4 | 1760 | 1990 | 74.7 | 63 | 3020 | 1650 | 75.9 | Anti-CD163 (R-20) (antibody) | percentage of cell-associated radioactivity [18]: 19% |
| 132 | 0.33 | 2.5 | 86 | 207 | 12.5 | 3.33 | 210 | 101 | 0.33 | Anti-CD163 (RM3/1) (antibody) | percentage of cell-associated radioactivity [19]: 7.77%; Kd [20]: 0.6 nM |
| – | – | – | – | – | – | – | – | – | – | Anti-rat CD163 ED2 (antibody) | fraction of peritoneal macrophages CD163 positive (rat CD163 on cells (rat) [21]): 42%; % of cells in the lower right quadrant (CD172a PE negative, CD163 FITC positive) (rat CD163 on cells (rat) [22]): 0.01%; % of cells in the upper right quadrant (CD172a PE positive, CD163 FITC positive) (rat CD163 on cells (rat) [22]): 42.9% |
| – | – | – | – | – | – | – | – | – | – | ED2-MVCP-dexamethasone (antibody) | suppressive effect on LPS mediated TNFα in vitro, rat spleen cells, against free dexamethasone (rat CD163 on cells (rat) [23]): 3 fold |
| – | – | – | – | – | – | – | – | – | – | ED2-NHS-dexamethasone (antibody) | level of TNFα suppression after 15 minutes of incubation, LPS stimulated rat spleen cells, against free dexamethasone (rat CD163 on cells (rat) [23]): 2 fold; suppressive effect on LPS mediated TNFα in vitro, rat spleen cells, against free dexamethasone (rat CD163 on cells (rat) [23]): 2 fold |
| – | – | – | – | – | – | – | – | – | – | IgG-FITC (antibody) | % of cells in the lower right quadrant (IgG FITC positive) (rat CD163 on cells (rat) [24]): 0.41%; % of cells in the upper right quadrant (IgG FITC positive, FL2 positive) (rat CD163 on cells (rat) [24]): 0.06% |
| – | – | – | – | – | – | – | – | – | – | R-PE-conjugated Mouse IgG1, k isotype control (MCG1) (antibody) | density of CD163 receptors per monocyte (PE antibodies bound per cell) [25]: 94 per monocyte; MFI [26]: 1.23 MFI |
